The results in this text go back to US20200024335A1 (BERG, published 2020).

The target of experiment [1] is E. coli-expressed partial FLNB (aa1416-2089), Filamin B immunogen (human) (UniProt O75369). Put plainly: ELISA, coated protein, negative control. In general terms: An ELISA detects its analyte on a solid surface through an enzyme-linked reagent.
For experiment [2], the target named is T1, HEK293-expressed full length FLNB (human, UniProt O75369 2-2601).
T1 construct: prepared by GenScript; also called full length human FLN-B protein
Briefly: ELISA, coated protein, negative control.

Experiment [3] has as its target HEK293-expressed full length FLNA (Homo sapiens (Human)) (UniProt P21333). Briefly: ELISA, coated protein, negative control.
Experiment [4] deals with E. coli-expressed partial FLNA (aa1443-2131) (Homo sapiens (Human)) (UniProt P21333). Put plainly: ELISA, coated protein, negative control.
Experiment [5] addresses E. coli-expressed partial FLNC (aa 1438-2128) (Homo sapiens (Human)) (UniProt Q14315). Briefly: ELISA, coated protein, negative control.
The target of experiment [6] is T1, HEK293-expressed full length FLNB. Briefly: BLI (Octet), antibody on anti-mIgG Fc capture sensor, FLNB 25 nM. In general terms: Biolayer interferometry detects binding as a change in optical thickness at a sensor tip.
For experiment [7] the target is unchanged. Put plainly: ELISA, coated protein, hybridoma supernatant. An excerpt:
(§1) Filamin A (FLNA) and Filamin C (FLNC) are the other two members in the Filamin family; they share 69% and 61% identity to FLNB, respectively. The clones were screened for negative with E. coli-expressed partial FLNA (aa1443-2131) and E. coli-expressed FLNC (aa 1438-2128) which cover the same region as FLN-B (aa1416-2089), and HEK293-expressed full length FLNA. 10% human serum was further tested for any unexpected cross-reactivity. The Partial FLNA (aa 1443-2131) protein sequence is shown in SEQ ID NO: 32. Partial FLNC (aa 1438-2128) protein sequence is shown in SEQ ID NO: 33. Full length FLNA protein sequence is shown in SEQ ID NO: 34.
(§2) Next, the proteins were coated and tested for supernatants from clones 3F10 and 5H7 by ELISA. […] FLNB proteins were tested for specificity, while homologous proteins FLNA and FLNC from the same family were tested for any cross-reactivity. 10% pooled normal human serum was also included for any unexpected non-specific binding.

For experiment [8], the target named is T2, E. coli-expressed partial FLNC (aa 1438-2128) (Homo sapiens (Human), UniProt Q14315 1438-2128).
T2 construct: Covers the same region as FLNB aa1416-2089; also called Partial Filamin C (aa 1438-2128)
T2 sequence: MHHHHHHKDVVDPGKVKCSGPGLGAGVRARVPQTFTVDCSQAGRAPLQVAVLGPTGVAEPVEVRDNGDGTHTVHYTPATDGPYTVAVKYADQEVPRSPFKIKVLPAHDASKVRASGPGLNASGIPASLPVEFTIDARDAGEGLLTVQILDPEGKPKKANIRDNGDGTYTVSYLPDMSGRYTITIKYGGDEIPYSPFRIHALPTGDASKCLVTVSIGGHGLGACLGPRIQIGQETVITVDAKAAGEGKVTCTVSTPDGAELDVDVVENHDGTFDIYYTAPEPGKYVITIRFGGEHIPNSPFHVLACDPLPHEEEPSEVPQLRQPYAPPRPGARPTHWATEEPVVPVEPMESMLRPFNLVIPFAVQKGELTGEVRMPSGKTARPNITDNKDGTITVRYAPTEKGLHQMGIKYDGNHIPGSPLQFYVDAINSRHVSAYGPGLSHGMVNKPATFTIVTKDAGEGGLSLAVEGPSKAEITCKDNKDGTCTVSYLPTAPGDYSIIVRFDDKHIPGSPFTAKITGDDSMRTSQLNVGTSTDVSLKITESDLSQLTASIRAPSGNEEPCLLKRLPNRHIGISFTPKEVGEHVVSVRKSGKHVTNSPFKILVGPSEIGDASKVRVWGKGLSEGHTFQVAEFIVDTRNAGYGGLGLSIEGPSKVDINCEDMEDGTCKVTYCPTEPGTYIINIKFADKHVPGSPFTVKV
Put plainly: ELISA, coated protein, hybridoma supernatant.
From the text: as §1, §2

Experiment [9] addresses T3, HEK293-expressed full length FLNA (Homo sapiens (Human), UniProt P21333 2-2647).
T3 construct: also called Full length Filamin A
Put plainly: ELISA, coated protein, hybridoma supernatant.
From the text: as §1, §2

In experiment [10] the target is T4, E. coli-expressed partial FLNA (aa1443-2131) (Homo sapiens (Human), UniProt P21333 1443-2131).
T4 construct: Covers the same region as FLNB aa1416-2089; also called Partial Filamin A (aa 1443-2131)
T4 sequence: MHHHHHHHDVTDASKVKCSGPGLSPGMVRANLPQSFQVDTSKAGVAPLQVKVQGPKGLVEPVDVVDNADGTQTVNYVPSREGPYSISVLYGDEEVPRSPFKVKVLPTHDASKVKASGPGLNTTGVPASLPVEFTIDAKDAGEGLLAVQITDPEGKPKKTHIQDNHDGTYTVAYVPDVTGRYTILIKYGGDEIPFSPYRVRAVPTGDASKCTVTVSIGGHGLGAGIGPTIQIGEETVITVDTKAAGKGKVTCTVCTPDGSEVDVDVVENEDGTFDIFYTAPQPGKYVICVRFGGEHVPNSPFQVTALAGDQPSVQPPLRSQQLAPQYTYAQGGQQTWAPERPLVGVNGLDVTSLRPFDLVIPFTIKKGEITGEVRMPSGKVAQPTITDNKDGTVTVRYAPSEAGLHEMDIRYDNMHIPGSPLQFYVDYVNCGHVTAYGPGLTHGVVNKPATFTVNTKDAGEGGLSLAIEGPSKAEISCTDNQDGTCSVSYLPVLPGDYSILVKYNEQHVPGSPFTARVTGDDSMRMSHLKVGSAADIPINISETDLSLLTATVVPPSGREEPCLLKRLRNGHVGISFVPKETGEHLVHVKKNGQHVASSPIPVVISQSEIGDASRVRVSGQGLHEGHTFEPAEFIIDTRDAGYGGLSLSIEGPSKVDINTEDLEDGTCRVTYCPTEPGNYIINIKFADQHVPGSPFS
Put plainly: ELISA, coated protein, hybridoma supernatant.
From the text: as §1, §2

In experiment [11] the target is T5, E. coli-expressed partial FLNB (aa1416-2089), Filamin B immunogen (human, UniProt O75369 1416-2089).
T5 construct: covers filamin repeats 13-19; also called partial FLNB protein
T5 sequence: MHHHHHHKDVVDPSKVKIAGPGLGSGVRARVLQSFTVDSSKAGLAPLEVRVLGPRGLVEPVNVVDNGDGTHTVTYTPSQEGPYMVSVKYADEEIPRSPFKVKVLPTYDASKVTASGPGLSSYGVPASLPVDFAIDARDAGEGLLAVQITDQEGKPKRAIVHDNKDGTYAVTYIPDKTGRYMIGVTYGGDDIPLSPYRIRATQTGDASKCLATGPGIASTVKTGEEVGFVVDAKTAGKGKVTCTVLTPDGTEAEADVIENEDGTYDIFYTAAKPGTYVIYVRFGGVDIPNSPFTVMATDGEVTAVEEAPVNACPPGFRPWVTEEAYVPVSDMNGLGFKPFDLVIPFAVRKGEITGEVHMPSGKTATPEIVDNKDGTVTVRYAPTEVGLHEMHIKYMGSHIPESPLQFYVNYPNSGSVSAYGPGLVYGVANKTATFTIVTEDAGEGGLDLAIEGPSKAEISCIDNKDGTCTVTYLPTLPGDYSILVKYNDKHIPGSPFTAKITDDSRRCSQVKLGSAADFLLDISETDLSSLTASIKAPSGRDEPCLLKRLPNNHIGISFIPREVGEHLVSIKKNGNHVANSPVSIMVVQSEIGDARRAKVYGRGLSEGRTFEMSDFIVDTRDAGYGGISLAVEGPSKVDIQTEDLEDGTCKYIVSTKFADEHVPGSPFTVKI
Briefly: ELISA, coated protein, hybridoma supernatant.
From the text: as §1, §2

Experiment [12] addresses 10% pooled normal human serum. Put plainly: ELISA, coated 10% serum, hybridoma supernatant.
Experiment [13] concerns the target HEK293-expressed full length FLNA (Homo sapiens (Human)) (UniProt P21333). Briefly: ELISA, coated protein, hybridoma supernatant.

T1 sequence (O75369 other isoform, or with tags, fused parts or gaps): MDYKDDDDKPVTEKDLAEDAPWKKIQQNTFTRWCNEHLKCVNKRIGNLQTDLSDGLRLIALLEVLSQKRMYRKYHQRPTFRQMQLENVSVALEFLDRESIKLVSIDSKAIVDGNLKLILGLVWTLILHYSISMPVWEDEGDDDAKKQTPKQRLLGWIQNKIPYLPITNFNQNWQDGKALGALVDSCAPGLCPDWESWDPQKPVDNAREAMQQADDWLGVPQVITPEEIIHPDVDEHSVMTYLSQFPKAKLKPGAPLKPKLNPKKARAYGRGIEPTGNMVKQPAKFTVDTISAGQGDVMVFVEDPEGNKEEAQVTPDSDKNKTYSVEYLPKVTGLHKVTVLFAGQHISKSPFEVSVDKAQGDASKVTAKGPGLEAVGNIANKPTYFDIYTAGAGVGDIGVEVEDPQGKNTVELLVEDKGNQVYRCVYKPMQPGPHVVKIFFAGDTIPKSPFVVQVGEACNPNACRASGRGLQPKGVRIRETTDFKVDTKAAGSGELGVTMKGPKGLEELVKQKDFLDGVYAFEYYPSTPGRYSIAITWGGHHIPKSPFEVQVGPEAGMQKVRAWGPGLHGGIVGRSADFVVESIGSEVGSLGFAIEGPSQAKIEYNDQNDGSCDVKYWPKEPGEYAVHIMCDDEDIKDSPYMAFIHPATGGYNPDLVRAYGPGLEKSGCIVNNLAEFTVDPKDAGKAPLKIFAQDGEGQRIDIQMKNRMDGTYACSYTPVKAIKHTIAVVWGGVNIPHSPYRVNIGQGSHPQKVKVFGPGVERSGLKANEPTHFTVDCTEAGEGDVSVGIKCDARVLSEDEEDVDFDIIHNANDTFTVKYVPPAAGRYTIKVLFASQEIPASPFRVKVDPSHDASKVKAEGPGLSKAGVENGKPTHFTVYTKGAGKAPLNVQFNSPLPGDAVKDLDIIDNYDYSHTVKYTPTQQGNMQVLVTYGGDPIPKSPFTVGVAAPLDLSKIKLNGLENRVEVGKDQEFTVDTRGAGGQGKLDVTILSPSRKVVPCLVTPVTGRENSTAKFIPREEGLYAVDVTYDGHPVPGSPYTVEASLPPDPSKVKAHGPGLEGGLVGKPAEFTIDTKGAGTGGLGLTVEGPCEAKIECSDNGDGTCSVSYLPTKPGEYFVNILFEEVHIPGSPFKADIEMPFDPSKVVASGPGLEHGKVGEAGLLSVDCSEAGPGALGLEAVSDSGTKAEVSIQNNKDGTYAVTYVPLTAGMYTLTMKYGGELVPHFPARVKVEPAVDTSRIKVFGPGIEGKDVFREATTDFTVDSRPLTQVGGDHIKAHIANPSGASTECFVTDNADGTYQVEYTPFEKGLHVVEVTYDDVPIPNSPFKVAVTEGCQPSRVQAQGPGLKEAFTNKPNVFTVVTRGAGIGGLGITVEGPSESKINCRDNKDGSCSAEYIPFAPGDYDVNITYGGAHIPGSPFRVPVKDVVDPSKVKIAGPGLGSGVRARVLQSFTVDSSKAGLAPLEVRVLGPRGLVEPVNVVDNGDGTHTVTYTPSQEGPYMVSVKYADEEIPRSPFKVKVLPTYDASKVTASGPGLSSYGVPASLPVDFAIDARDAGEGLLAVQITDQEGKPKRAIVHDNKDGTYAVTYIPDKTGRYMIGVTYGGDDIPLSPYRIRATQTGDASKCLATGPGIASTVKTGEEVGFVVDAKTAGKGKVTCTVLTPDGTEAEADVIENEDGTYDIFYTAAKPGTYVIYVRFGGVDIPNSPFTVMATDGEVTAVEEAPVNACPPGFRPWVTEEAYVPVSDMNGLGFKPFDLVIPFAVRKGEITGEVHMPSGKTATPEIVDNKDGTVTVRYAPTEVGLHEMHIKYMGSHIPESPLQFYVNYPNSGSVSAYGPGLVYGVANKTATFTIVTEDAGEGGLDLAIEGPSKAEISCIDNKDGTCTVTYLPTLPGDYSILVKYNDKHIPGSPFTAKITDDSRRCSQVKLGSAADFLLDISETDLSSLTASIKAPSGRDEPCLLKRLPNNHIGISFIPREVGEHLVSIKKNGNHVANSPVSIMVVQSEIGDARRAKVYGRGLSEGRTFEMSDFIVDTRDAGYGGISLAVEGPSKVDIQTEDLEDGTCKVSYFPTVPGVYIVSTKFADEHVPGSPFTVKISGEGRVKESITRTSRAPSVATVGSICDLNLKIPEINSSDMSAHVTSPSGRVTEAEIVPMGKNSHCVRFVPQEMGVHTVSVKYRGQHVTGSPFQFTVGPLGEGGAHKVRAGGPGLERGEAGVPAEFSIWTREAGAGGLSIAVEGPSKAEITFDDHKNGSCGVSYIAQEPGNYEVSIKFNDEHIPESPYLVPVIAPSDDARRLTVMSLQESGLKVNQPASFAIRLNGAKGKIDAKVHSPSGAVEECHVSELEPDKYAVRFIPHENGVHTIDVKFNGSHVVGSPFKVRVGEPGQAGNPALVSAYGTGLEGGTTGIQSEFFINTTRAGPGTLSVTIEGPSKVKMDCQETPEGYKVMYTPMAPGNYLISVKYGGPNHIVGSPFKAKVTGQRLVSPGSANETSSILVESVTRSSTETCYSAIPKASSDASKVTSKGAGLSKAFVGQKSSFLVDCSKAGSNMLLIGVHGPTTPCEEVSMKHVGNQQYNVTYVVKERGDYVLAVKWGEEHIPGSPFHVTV

As for “Neg ctl (negative control of the specificity ELISA)”, the ELISA test result in [1] amounted to 0.04; in experiment [2] it was 0.06; in [3], 0.073; in experiment [4], 0.05; in experiment [5], 0.05.

B1: 3F10 murine monoclonal anti-FLNB antibody (antibody, V domains shown)
VH: QVQLQQPGAELVKPGASVKLSCKASGYTFTSYWMHWVKQRPGQGLEWIGMIHPNSGSTNYNEKFKSKATLTVDKSSSTAYMQLSSLTSEDSAVYYCAIYGSGPWFAYWGQGTLVTVSA
VL: DIQMTQSPASLSASVGETVTITCRASENIYSSLAWYQQKQGKSPQLLVYYAKTLAEGVPSRFSGSGSGTQFSLKINRLQPEDFGSYYCQHHYGSPLTFGAGTKLELK
notes: Tested as hybridoma supernatant or purified antibody; also called clone 3F10; anti-FLNB antibody (3F10)
In the case of B1, the Kd in experiment [6] was below 1 pM. Also, the dissociation rate constant (koff) in [6] is below 1e-07 s⁻¹. Besides, the association rate constant (kon) in experiment [6] came out at 270000 M⁻¹ s⁻¹. In addition, the ELISA test result in [7] worked out at 2.36; in [8], 0.06; in experiment [9], 0.076; in experiment [10], 0.05; in [11], 3.87; in [12], 0.048. For the same molecule, the binding result in [8], in [9] and in experiment [10] was “no binding” each time.

B2: 5H7 murine monoclonal anti-FLNB antibody (antibody, IgG2b, V domains shown)
VH: DVQLQESGPGLVKPSQSLSLTCSVTGYSITSGYYWNWIRQFPGNKLEWMGYISYDGSNNYNPSLKNRISITRDTSKNQFFLRLNSVTTEDTATYYCARETWASFDYWGQGTTLTVSS
VL: DIVMTQSQKFMSTTVGDRVGITCKASQNVGIAVAWYQQKPGQSPRLLIYSASYRYTGVPDRFSGSGSGTDFTLTINNMQSEDLADYFCQQYSSYPLTFGSGTKLEIK
notes: also called clone 5H7; biotin-linked monoclonal antibody specific for FLNB (5H7)
Regarding B2, the Kd in experiment [6] is below 1 pM. Further, the koff in [6] was below 1e-07 s⁻¹. Further, the kon in [6] was found to be 250000 M⁻¹ s⁻¹. In addition, the ELISA test result in experiment [7] was 3.49; in experiment [8] it was 0.05; in experiment [10], 0.05; in experiment [11] it was 3.48; in experiment [12], 0.123; in experiment [13], 0.191. Besides, the binding result in experiment [8] and in experiment [10] was “no binding” each time.

As usually defined, the Kd is the constant that tells how readily two partners part at equilibrium. Read a low Kd as tighter binding. Usually koff stands for the rate constant with which the complex falls apart. Read a high koff as a short-lived complex. The term kon denotes a measure of how fast the partners come together. A lower kon goes with slow association.
